The data set is described as follows: soluble on expression in E. coli; label from the status in PepcDB or PDB records.
On to “MKPSQWTLRWVTLCGCGMLAASAAAVELPGTVQPSQLDERFKPRSEPQAKPEAPLVVPKQVAPQGSEQIRFKLREIRIEGNTRYDKAVLESYYQHMLGEQVSLAELVDLANRLTAKYRQDGFLLTQVVVPEQSIEGGKVRLQVIEGYLEHVQIKGTVDGPRVRVEELLAPLTEKRPLDADTLERGLLLVGDLPGVNVQSVLSPGQALGSSNLDVALQQQRYEGFVSLDNRGSHYTDPTTLAFGATEFSRLGFYEQIDVLGAISPFSDATRYIQLRGTLPLGGMFAGDTLQIMGSYSKVNPDIPDSVFPFDSVSKSTEGSISYNHPFIRSRSQNLSGGLALQWKDTETRLRDFASDASNPGRDHVRVFQQRLTYDWVDRWMGINLAEVRNNIGLDMWGATKKDDERRSREVADGRFVYLNGNIGRLQGLGGPWSVYGELQWQYSFDPLLPSERFGVGGSGIGRGFAPGNITGDRGFALKLEPRYGQAVGYSWLRSYQAYAFYDWGKTYNLDVDDDEQQKLGSIGAGVRFNLTDQLSFNPEIARQVIGEPADQRDGKRETRVLFNVVARF”, for which the “soluble on expression in E. coli” value is “not soluble”. As to “MGSDKIHHHHHHMDWLSKHYQQQKGYDELVGEGAVPRLPAAPLFDYLSTLDSSELRARRQAADAAILAMGITFTVYSEAGDIDRAWPFDIIPRILSRREWMRIEEGLKQRLQALNLFIDDIYNAQRIVVDGVFPAEVLASSRNFREACRGVHPPFGVWAHICGSDLVRDADGTVYVLEDNLRVPSGVSYMLENRQIMKRLFPELFKSSTILPVDDYPNRLYDTLAALSPREGERPVVAVLTPGIYNSAYFEHSYLAQQMGAYLAEGADFFVSRDDIVYLRTISGPQRVDVIYRRIDDEYMDPEVFFTDSALGIPGLLRAWRRGTVAIANAPGAGVADDKVVYAFVPDIIRYYLGAEPILPNVPTYLCMREADRDYVLSHLHELVVKPANESGGYGMLIGPRATSEERGRFAELIAANPRNYIAQPTLNLSTAPTLVEDHLEARHLDLRPFILQADKLYVTTGGLTRVAMQPGSLVVNSSQGGGSKDTWIVDEEAPCFRA”, the “soluble on expression in E. coli” value is listed as “not soluble”. Take “MGSDKIHHHHHHMLSRFARQLALPVFNGVLHPTRATSSIAHTIKVAHKIDETREKALLGGGKKRVDAQHARGKLTARERIDLLLDRNTFREYDMFAEHTCNDFGMQKEKYPGDSVVTGRGEINGRTVFVFSQDFTVFGGSLSSIHAKKIVKIMREAMLVGAPVIGLNDSGGARIQEGVESLAGYADIFQENVMASGVVPQISMIMGPCAGGAVYSPALTDFTFMVRDTSYLFITGPDVVKAVTNEEVTQEELGGAKTHTVTSGVAHGAFDNDVDALMSLRELFNYLPLSNTDAAPIRAAEDPWDRAVPSLDTVVPLESTAAYNMKDVVHALVDEGDFFEIMPDYAKNLVIGFARMNGRTVGIVGNNPKFAAGCLDINSSVKGARFVRFCDAFNIPIITLVDVPGFLPGTAQEYGGIIRHGAKLLYAFAEATVPKITIITRKAFGGAYDVMSSKHLRGDINYAWPTAEVAVMGAKGAVSILFRNDKEHAVQHEEEYTELFSNPFPAAVRGFVDDIIIPSETRKKVCEDLNMLESKKLKNPWKKHGNIPL”: the “soluble on expression in E. coli” value is given as “not soluble”.

In the case of “IDKAIRDGNVLGFRTEYYKTLSEKDDIDDETSSTGIDKKEALENPIRISEIVDFILKNYNRLTKRNEEFFEHNKIANINEVITSRNKLSENKVLTTLNGFNSILACSSINAAKIYYSEFKKQQQKFPQEEKLKIGLIYSYLPSEQ”, the “soluble on expression in E. coli” value is “not soluble”.

Regarding “FRKIAQAYNLDLLVHHANAQLKQLVRRYRLKRGGSMLGLLVMDTEMGDELRSVHSLSGGETFLVSLALALGLASMASSTLRIESLFIDEGFGSLDPESLQLAMDALDGLQAQGRKVGVISHVQEMHERIPVQIRVRRQGNGLSTI”, the “soluble on expression in E. coli” value is “not soluble”. “MKEKIPFYNEKEFNEMMKKTKKGTFSGWYIINPENNSVEFSGSFNRQFKLNKPIIPVNTEYVTRKEFNEYKDSNDQRLIKIETTLTAQGEQINKLTQTVEKQGEQIRELQVEQKAQGEQIKAQGETLKLILQTLQKMSDRLDKIDPPKLEHHHHHH”: the “soluble on expression in E. coli” value is on record as “not soluble”. The same measure for “SNAMKESNHLMDTPYSYLIRSIGMKLKTSADARLAELGLNSQQGRMIGYIYENQESGIIQKDLAQFFGRRGASITSMLQGLEKKGYIERRIPENNARQKNIYVLPKGAALVEEFNNIFLEVEESITKGLTKDEQKQLMSILIKVNRSM”: “soluble”; for “MKNIAIIGASGYTGAQLTALVHAESELSIQGLYVSENSLDKGRALADLYPVYSHIELTLSPLTEEAKANIVAEADAVVLATEHSVSLHLAAWFYSQGLAVFDLSGAYRFSDVAQYPKWYGFEHEYPEVLAKAVYGLAEWNAKDVAATKMIAVPGCYPTASLTALKPLKNLLTSAYPVINAVSGVTGAGRKAQLHTSFCEVSLTPYGVLGHRHQPEIATQLGQEVIFTPHLGNFKRGILATITVQLKPGTTTADVAAAYSVYDQAPLVTVKQNQFPKVDDVVLTPNCHLGWKFDESSGYLVVASAIDNLMKGAASQALQCIKIHFNL”: “not soluble”. On to “GSHMECADVPLLTPSSKEMMSQALKATFSGFTKEQQRLGIPKDPRQWTETHVRDWVMWAVNEFSLKGVDFQKFCMSGAALCALGKECFLELAPDFVGDILWEHLEILQKEDVK”, for which the “soluble on expression in E. coli” value is listed as “soluble”. Take “MKIGIVGATGYGGTELVRILSHHPHAEECILYSSSGEGNVYSEGYPHLTGLADQQLKPIDMNTIKHEIDIMFLAAPPGVSSELTPKLADAGITVIDLSGDLRIKEPAEYEKWYKRTAAPKAVIQEAVYGLAELNQLQIQQAKLIANPGCFPTAVLLGLAPLAQKKLLDESFVIVDAKTGVSGAGRKASMGTHFSELNDNFKIYKVNEHQHTPEIEQALNEWQPGLGPITFSAHLVPMTRGIMATMYTRLTCDLTADDLHDLYSEFYQDSYFVRVRPKGQYPQTKEVYGSNFCDIAVTLDERTNRVTIVSVIDNLMKGAAGQAVQNFNLMNGWNEETGLTIITPIYP”: the “soluble on expression in E. coli” value was “not soluble”. “MSLTTENQNPLVLDKNEEISQQKADDIRLQLRQEPEVKRLAQQIDVKNQMELLEYGKEPAVEISKFSDRILGMMKTTSVTDSGTMLTQLGKIMDRFDKNDFDEPKGLMAKIFKRGGSMIEKIFKKYQTLGGEIEKIHVEISKYKDEMTKTNYTLDEMYENNIKYYMELEKYVVAGQMKLEEMQSILPSYEEKAASGNQLAQMQLDTLRNGIQALEERVYDLDMARMVALQTAPQIRLLQRGNAKLIGKINSAFIITIPIFKNGIIQAVTVKRQKLVADSMSELDRRTNEMLKRNAENISSQSVEIARMAGRPSIDIETIESSWNTIVSGMQETKQIEEENKRLREDGARRIAQLQDNIKKAALQQEGHHHHHH”: the “soluble on expression in E. coli” value is “not soluble”. The same measure for “MSLTGNPPNPAGIKTDYLWKKILTPQGLTDILENYAQVVEEKDEKTGKKKKVQIFPRYHQLDVVRKLLAHAEWHGAGMRYLVQHSAGSGKSNSIAWLAHQLISLKKDDKEIFDSIIVITDRRVLDKQIRDTIKQFAQVGSTVGHAERSGDLRKFIESGKKIIISTVQKFPFILDEIGNEHRGRKFAIIIDEAHSSQGGRTAAAMSEALSDSKDQKDPEDTINDALQKRMEARKMLPNASYFAFTATPKNKTLELFGEPYKDGDKIKHRPFHNYTMKQAIQEGFILDVLRYYTPVNSYYKLIKTVESDPEFDTKKAKKKLRKYVESHDYAIRLKAEIIVDHFQEQVIALNKIGGQARAMVVTNGIERAIQYYHAIRDYLLELNSPYKAIVAFSGEHEYGGVKVTEATLNGFPSSQIEDKIEEEPYRFLICADKFQTGYDEPLLHTMYVDKVLSGIKAVQTLSRLNRAHPKKHDVFVLDFMNDTDTIQDAFSDYYRTTVLSDETDPNKLHDLKSDLDSYQAYSPEQIEQFVELYLGGADRDKLDPILDVCVATYKDHLDEDEQVDFKSKAKAFSRTYGFLASILPYTNADWEKLSIFLNFLIPKLPAPREEDLSKGILEAIDMDSYRVEKQAVVNIQLPDSDSEIEPVPTEAGGFKPEPELDRLSNILKTFNDQFGNIRWTDSDRVHRLITEEIPARVAADVAYQNAKKNSDKQNAKIEHDKALARVMIALMKDDTQLFKLFSDNESFRRTLTDAIFERTYSEGHHHHHH”: “not soluble”.

(Values after the DeepSol protein solubility set.)
